Test results as given in patent publication US20090226456A1 (published 2009).

Columns and labels:
Assay in all cases: flow cytometry on transiently transfected cells
[1] = target: T1, CD27 on transiently transfected cells (UniProt P26842 20-260, limits assumed)
T1 construct: whole, on cells
T1 sequence (looked up): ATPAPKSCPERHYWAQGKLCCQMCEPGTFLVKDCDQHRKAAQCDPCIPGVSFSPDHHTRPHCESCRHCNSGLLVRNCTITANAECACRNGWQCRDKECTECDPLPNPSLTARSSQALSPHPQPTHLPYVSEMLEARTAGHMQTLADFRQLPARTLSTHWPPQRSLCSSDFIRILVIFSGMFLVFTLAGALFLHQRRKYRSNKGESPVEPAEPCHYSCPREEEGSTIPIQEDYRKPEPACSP
Procedure: (§1) One million cells, in 0.1 ml of FACS buffer (PBS, 0.1% BSA, 0.1% NaN₃), were incubated with 0.1-1 microgram of protein or antibody at RT for 15 min. The cells were washed with 3 ml of FACS buffer, reacted with biotinylated primary antibody, and stained with PE-conjugated secondary antibody at RT for 15 min. Cells were then washed again, resuspended in 0.5 microgram/ml of propidium iodide, and live cells were gated and analyzed on a FACScan using the CellQuest software (BD Biosciences).

[2] = target: T2, CD30 on transiently transfected cells (UniProt P28908 19-595, limits assumed)
T2 construct: whole, on cells
T2 sequence (looked up): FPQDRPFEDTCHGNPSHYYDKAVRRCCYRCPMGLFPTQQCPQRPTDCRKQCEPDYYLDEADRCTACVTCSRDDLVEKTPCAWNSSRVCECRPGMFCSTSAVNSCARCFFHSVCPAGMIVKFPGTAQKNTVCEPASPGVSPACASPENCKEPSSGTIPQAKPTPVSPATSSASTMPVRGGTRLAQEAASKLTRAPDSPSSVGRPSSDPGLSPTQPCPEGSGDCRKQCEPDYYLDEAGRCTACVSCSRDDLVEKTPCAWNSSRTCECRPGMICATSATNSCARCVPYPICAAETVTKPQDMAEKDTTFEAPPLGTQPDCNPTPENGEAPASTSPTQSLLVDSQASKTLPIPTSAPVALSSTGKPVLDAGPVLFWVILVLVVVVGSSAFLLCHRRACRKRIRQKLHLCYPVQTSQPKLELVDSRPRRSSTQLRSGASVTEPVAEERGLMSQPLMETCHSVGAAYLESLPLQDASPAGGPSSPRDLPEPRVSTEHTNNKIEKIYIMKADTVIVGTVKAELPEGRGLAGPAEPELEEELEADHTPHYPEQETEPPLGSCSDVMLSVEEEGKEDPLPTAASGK
Procedure: as §1

[3] = target: T3, LTβR on transiently transfected cells (UniProt P36941 31-435, limits assumed)
T3 construct: whole, on cells
Procedure: as §1

[4] = target: T4, DR5 on transiently transfected cells (UniProt O14763 56-440, limits assumed)
T4 construct: whole, on cells
Procedure: as §1

[5] = target: T5, DR4 on transiently transfected cells (UniProt O00220 24-468, limits assumed)
T5 construct: whole, on cells
T5 sequence (looked up): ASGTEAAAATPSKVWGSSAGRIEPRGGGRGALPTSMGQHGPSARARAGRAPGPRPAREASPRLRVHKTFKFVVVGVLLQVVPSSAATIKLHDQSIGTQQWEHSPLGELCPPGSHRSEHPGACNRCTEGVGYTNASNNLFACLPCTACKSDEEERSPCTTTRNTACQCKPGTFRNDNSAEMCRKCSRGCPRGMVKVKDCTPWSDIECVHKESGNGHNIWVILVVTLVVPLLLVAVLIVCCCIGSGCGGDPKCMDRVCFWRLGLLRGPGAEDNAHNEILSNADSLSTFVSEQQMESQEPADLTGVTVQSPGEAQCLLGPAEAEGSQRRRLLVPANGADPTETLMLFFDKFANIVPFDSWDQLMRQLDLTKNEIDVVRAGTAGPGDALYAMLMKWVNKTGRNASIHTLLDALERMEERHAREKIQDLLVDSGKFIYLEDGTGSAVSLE
Procedure: as §1

[6] = target: T6, DR6 on transiently transfected cells (UniProt O75509 42-655, limits assumed)
T6 construct: whole, on cells
T6 sequence (looked up): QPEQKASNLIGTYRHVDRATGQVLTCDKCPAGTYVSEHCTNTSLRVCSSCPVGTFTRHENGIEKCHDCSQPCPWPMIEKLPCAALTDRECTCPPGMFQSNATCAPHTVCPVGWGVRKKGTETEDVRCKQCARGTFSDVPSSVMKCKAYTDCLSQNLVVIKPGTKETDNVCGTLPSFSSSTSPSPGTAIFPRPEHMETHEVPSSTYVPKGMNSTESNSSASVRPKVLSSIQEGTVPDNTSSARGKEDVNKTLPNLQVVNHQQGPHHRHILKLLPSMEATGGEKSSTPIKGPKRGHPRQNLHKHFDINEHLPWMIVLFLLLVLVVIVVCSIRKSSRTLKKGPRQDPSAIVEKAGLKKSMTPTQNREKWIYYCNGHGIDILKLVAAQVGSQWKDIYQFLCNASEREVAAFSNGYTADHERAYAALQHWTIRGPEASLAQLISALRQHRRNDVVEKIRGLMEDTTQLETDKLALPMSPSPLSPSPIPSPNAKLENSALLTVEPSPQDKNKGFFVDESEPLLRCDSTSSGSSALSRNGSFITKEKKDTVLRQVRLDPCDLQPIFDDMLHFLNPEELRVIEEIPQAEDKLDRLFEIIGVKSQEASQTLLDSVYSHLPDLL
Procedure: as §1

[7] = target: T7, DcR1 on transiently transfected cells (UniProt O14798 26-236, limits assumed)
T7 construct: whole, on cells
T7 sequence (looked up): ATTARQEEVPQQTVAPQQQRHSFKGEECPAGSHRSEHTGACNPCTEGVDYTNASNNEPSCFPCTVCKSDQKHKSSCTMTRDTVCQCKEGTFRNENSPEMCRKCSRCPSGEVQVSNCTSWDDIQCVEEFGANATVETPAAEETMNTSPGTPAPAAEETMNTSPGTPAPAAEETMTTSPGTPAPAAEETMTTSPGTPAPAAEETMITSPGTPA
Procedure: as §1

[8] = target: T8, DcR2 on transiently transfected cells (UniProt Q9UBN6 56-386, limits assumed)
T8 construct: whole, on cells
T8 sequence (looked up): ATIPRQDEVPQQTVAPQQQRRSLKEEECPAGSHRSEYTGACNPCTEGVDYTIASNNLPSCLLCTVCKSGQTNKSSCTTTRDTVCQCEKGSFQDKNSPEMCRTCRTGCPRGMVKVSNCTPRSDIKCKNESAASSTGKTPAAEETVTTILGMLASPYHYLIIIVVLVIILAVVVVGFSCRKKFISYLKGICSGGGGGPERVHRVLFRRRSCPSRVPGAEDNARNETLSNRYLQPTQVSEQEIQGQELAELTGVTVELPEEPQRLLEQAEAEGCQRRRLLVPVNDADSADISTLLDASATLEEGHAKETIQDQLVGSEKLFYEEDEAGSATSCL
Procedure: as §1

Measured: binding result

T3 sequence (P36941 31-435 limits assumed): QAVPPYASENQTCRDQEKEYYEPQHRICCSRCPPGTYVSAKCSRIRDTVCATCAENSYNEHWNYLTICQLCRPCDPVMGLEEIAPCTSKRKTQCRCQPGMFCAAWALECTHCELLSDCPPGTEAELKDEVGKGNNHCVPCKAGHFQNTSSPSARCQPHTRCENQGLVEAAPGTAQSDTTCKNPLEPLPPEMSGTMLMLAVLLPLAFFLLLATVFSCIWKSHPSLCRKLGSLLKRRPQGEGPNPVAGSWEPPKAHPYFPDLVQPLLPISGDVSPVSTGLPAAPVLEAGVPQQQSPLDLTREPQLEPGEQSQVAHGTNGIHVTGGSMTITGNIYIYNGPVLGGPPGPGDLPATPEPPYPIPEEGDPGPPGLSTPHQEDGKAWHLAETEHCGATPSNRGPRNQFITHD

B1: FLAG-tagged soluble TNF-gamma-beta (aa 72-251) (ligand, human)
chain: DYKDDDDKLKGQEFAPSHQQVYAPLRADGDKPRAHLTVVRQTPTQHFKNQFPALHWEHELGLAFTKNRMNYTNKFLLIPESGDYFIYSQVTFRGMTSECSEIRQAGRPNKPDSITVVITKVTDSYPEPTQLLMGTKSVCEVGSNWFQPIYLGAMFSLQEGDKLMVNVSDISLVDYTKEDKTFFGAFLL
notes: also called FLAG-TNF-gamma-beta; FLAG-TL1β
no binding: all assays above
